Measured values taken from patent US10119980B2, “Method for detection of basic peptide and reagent for detection of basic peptide” (SYSMEX CORPORATION, priority 2009, dated 2018).

Columns and labels:
[1] = target: T1, partial ACTH peptide (positions 1 to 24 of ACTH) (Homo sapiens, UniProt P01189); assay: Turbidity (OD550) measurement and Hill plot analysis of albumin reagents mixed with partial ACTH peptide; format: binding
T1 construct: consisting of the amino acids of positions 1 to 24 of ACTH
T1 sequence (P01189 138-161): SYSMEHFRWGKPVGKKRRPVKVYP
Procedure: BSA (Sigma-Aldrich) was dissolved in Milli-Q® water (Millipore) to prepare a BSA solution (1.0 w/v %). The BSA solution was divided into two and one was designated as a non-denatured BSA solution and the other was autoclaved at 110° C. for 15 minutes to obtain a heat-denatured BSA solution.
A partial ACTH peptide (Peptide Institute, Inc.) consisting of the amino acids of positions 1 to 24 of ACTH was used as the basic peptide of interest. The peptide was dissolved in ultrapure water to prepare a sample containing the basic peptide of interest (1.0 mg/ml).
The heat-denatured BSA solution prepared in the above (1) (50 μl) was mixed with the sample prepared in (2) followed by addition of ultrapure water to prepare a total volume of 250 μl of a mixed solution (final concentration of heat-denatured BSA: 0.2 w/v %). In this preparation, the sample was mixed so as to obtain a final concentration of the partial ACTH peptide in the mixed solution of 0 to 150 μM. A comparative mixed solution was also prepared in the similar manner except that the non-denatured BSA solution was used instead of the heat-denatured BSA solution.
The thus-prepared mixed solutions were measured for absorbance at the wavelength of 550 nm (OD550) in a spectrophotometer UV-2500PC (Shimadzu Corporation). The obtained results were subjected to Hill plot analysis with KaleidaGraph (HULINKS, Inc.) to calculate the values of Kd and the Hill coefficient of heat-denatured BSA and non-denatured BSA.
BSA (Sigma-Aldrich) was dissolved in Milli-Q® water (Millipore) to prepare a BSA solution (1.0 w/v %). The BSA solution was divided into five aliquots among which one was designated as a non-denatured BSA solution (heat denaturation period: 0 min) and the rest of four were heated in an autoclave at 110° C. for 5, 15, 60 and 120 min, respectively, to obtain heat-denatured BSA solutions.
The Kd value and Hill coefficient of BSA at respective heat denaturation periods were calculated. […]
The Kd value and Hill coefficient were calculated for the mixed solutions. […]

[2] = target: T2, partial ACTH peptide (Homo sapiens, UniProt P01189); assay: OD550 Hill plot analysis in serum-based solution versus control solution; format: binding
T2 construct: consisting of amino acids of positions 1 to 24 of ACTH; purchased Biologica Co
Procedure: The peptide was dissolved in ultrapure water and mixed with serum collected from a healthy volunteer in USA (person) (SUNFCO) to prepare the serum-based sample containing the basic peptide of interest. The serum-based samples were prepared so as to adjust the final concentrations of the partial ACTH peptide and serum as shown in (3) below.
The denatured BSA solution prepared in the above (1) (50 μl) was mixed with the sample prepared in (2) followed by addition of ultrapure water to prepare a total volume of 250 μl of mixed solution containing serum (hereinafter referred to as “serum-based solution”). In the preparation, the serum-based sample was mixed so as to adjust a final concentration of the partial ACTH peptide of to 0 to 80 μM and adjust a final concentration of serum of to an equivalent to 100-fold dilution in the mixed solution. For a control, a mixed solution was also prepared without serum (hereinafter referred to as “control solution”).
The thus-prepared mixed solutions were measured for absorbance at the wavelength of 550 nm (OD550) with a spectrophotometer UV-2500PC (Shimadzu Corporation).
OD=(peptide concentration)^n/[(peptide concentration)^n+[Kd×(1+CHSA/Ki)]^n]

[3] = target: T2, partial ACTH peptide; assay: Detection capacity (turbidity, OD550) at various final concentrations of reagent for detection; set-up: key: “Y” denotes turbidity appearing; “N” does the absence of turbidity
Procedure: BSA (Sigma-Aldrich) was dissolved in ultrapure water to prepare a BSA solution (5.0 w/v %). The BSA solution was heated in an autoclave at 115° C. for 15 minutes to obtain a heat-denatured BSA solution.
A partial ACTH peptide consisting of amino acids of positions 1 to 24 of ACTH (Biologica Co.) was used as the basic peptide of interest. The peptide was dissolved in ultrapure water to prepare a sample containing the basic peptide of interest (1.0 mg/ml).
The heat-denatured BSA solution prepared in (1) was mixed with 30 μl or 60 μl of the sample prepared in (2) followed by addition of ultrapure water to prepare a total volume of 250 μl of mixed solutions. In the preparation, the reagent for detection (solution of heat-denatured BSA) was mixed with the respective samples so as to obtain a final concentration of the reagent for detection in the mixed solution of 0.1 to 5%.
The thus-prepared mixed solutions were measured for values of absorbance at the wavelength of 550 nm (OD550) with a spectrophotometer UV-2500PC (Shimadzu Corporation). The results obtained are summarized in Table 6, where “Y” denotes turbidity appearing and “N” does the absence of turbidity.

[4] = target: T2, partial ACTH peptide; assay: OD550 detection of basic peptide concentrated by OFFGEL fractionation from serum-containing specimen; conditions: Heat-denatured BSA: Yes; concentrated partial ACTH peptide fraction after OFFGEL fractionation, MES-HCl buffer pH 5.0
Procedure: A partial ACTH peptide consisting of amino acids of positions 1 to 24 of ACTH (Biologica Co.) was used as the basic peptide of interest. The peptide was dissolved in ultrapure water and mixed with serum of a healthy USA subject (SUNFCO) to prepare an actual serum sample containing the basic peptide of interest. The sample was prepared so as to obtain the concentrations of the partial ACTH peptide and serum as shown in (3) below.
(3) Preparation of sample solution containing concentrated basic peptide of interest. A glycerol solution (Agilent technologies; 6 ml) and an OFFGEL Buffer solution (Agilent technologies; 600 μl) were mixed followed by addition of ultrapure water to prepare a total volume of 50 ml of peptide buffer solution (×1.25), the pH of which is 3-10. This solution was mixed with the sample of the above (2) to prepare a peptide buffer solution (×1) with the concentration of 20 μM of the partial ACTH peptide and the concentration equivalent to 1000-fold dilution of serum. This solution was fractionated with using a High Resolution IPG gel for fraction whose pH is pH 3-10 on the OFFGEL fractionator (Agilent Technologies). […]
The thus-prepared mixed solutions were measured for absorbance at the wavelength of 550 nm (OD550) in a spectrophotometer UV-2500PC (Shimadzu Corporation).

[5] = Example 1, final BSA 0.2 w/v %, peptide 0 to 150 μM, OD550 Hill plot
[6] = Nucleic acid: Yes (salmon sperm DNA, final 10 μM)
[7] = heat denaturation period 5 min at 110° C.
[8] = heat denaturation period 15 min at 110° C.
[9] = heat denaturation period 60 min at 110° C.
[10] = heat denaturation period 120 min at 110° C.
[11] = Control solution (without serum)
[12] = Serum solution (serum equivalent to 100-fold dilution)

## Heat-denatured BSA: BSA solution (1.0 w/v %) in Milli-Q water autoclaved at 110° C. for 15 minutes; reagent for detection
[1]; [5]
  Hill coefficient n: 8
  Kd: 30 µM
[1]; Nucleic acid: No
  Hill coefficient n: 11
  Kd: 40 µM
[1]; [6]
  Hill coefficient n: 8
  Kd: 30 µM
[1]; albumin reagent mixed with partial ACTH peptide
  change in OD550 with increasing partial ACTH peptide concentration: increased in a concentration dependent manner
[1]; [7]
  Hill coefficient n: 5
  Kd: 33 µM
[1]; [8]
  Hill coefficient n: 8
  Kd: 30 µM
[1]; [9]
  Hill coefficient n: 6
  Kd: 28 µM
[1]; [10]
  Hill coefficient n: 4
  Kd: 33 µM
[2]; [11]
  Hill coefficient n: 4
  Kd: 25 µM
[2]; [12]
  Hill coefficient n: 3.4
  Kd: 29 µM
[3]; final conc. of reagent 0.1 %
  Detection capacity (in the case of 30 μM peptide): Y
  Detection capacity (in the case of 60 μM peptide): Y
[3]; final conc. of reagent 0.2 %
  Detection capacity (in the case of 30 μM peptide): Y
  Detection capacity (in the case of 60 μM peptide): Y
[3]; final conc. of reagent 0.4 %
  Detection capacity (in the case of 30 μM peptide): Y
  Detection capacity (in the case of 60 μM peptide): Y
[3]; final conc. of reagent 0.5 %
  Detection capacity (in the case of 30 μM peptide): Y
  Detection capacity (in the case of 60 μM peptide): Y
[3]; final conc. of reagent 0.7 %
  Detection capacity (in the case of 30 μM peptide): Y
  Detection capacity (in the case of 60 μM peptide): Y
[3]; final conc. of reagent 1.0 %
  Detection capacity (in the case of 30 μM peptide): Y
  Detection capacity (in the case of 60 μM peptide): Y
[3]; final conc. of reagent 5.0 %
  Detection capacity (in the case of 30 μM peptide): Y
  Detection capacity (in the case of 60 μM peptide): Y
[4]
  OD550: 0.03
